This note sets out measurements from US20140087995A1 (published 2014).

The target in experiment [1] is T1, human amylin receptor (amylin 3(a) receptor: human calcitonin receptor plus RAMP-3) (human, UniProt P30988 25-474; O60896 24-148, limits assumed).
T1 sequence (looked up) 1: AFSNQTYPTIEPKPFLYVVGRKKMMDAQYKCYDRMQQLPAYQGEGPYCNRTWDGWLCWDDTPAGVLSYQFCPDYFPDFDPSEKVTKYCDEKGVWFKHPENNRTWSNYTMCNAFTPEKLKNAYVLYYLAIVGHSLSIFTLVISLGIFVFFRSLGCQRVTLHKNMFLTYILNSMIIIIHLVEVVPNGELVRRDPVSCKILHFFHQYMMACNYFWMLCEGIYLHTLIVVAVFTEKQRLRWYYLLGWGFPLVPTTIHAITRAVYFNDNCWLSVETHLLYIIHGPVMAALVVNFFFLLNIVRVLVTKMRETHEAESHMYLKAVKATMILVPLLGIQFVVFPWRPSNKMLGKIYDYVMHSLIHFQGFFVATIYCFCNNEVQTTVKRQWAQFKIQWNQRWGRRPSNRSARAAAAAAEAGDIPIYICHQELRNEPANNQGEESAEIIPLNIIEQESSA
T1 sequence (looked up) 2: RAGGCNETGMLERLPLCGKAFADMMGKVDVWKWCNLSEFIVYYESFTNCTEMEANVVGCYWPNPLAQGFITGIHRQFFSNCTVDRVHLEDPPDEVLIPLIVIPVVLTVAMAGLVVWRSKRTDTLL
Kind of experiment: cell-based or functional assay.

The target of experiment [2] is T2, human calcitonin receptor (human, UniProt P30988 25-474).
T2 sequence (looked up): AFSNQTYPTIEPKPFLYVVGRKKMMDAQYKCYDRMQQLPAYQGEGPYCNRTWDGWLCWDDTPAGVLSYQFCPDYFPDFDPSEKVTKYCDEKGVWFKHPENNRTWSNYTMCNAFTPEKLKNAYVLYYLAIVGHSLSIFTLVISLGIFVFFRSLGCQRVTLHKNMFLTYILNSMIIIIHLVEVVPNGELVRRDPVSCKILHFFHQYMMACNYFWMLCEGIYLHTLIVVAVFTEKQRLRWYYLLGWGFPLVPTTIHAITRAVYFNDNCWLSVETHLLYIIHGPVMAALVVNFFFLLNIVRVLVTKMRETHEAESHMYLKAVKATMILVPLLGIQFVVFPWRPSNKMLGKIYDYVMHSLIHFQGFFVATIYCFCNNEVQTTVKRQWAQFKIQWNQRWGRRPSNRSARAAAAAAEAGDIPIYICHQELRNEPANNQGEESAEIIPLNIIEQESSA
The experiment is described as follows: cell-based or functional assay.

Experiment [3] has as its target T1, human amylin receptor (amylin 3(a) …). Kind of experiment: SPA competition binding, displacement of 125I-rat amylin from membranes of BHK cells with human calcitonin receptor + RAMP-3 (Assay V). Summed up:
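Cell membranes were prepared by homogenisation in Na-HEPES/EDTA buffer, pH 7.4, and stored at −80° C. They were then coupled to SPA beads at 35 ng/μL final and exposed to compounds in assay buffer containing CaCl2, MgCl₂, OA and Tween20. After 120 min at 25° C, plates were counted and IC₅₀ derived.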
(Loss of bound radioactivity is the signal in a displacement assay; it reports binding, not function.)

Numbered stars: 1 amine (or outer) side, 2 acyl side, 3 side chain; on linkers, the order of the positions; unused ones are H or OH. Bridge positions count the residues as written; N and C are the ends. * marks the point of attachment. C20 diacid = O=C(O)CCCCCCCCCCCCCCCCCCC(=O)*; γGlu = O=C(O)[C@H](CCC(=O)[*:2])N[*:1]

B1: N^α1-[(4S)-4-carboxy-4-(19-carboxynonadecanoylamino)butanoyl]-[Arg17,Pro21,Pro27,Pro34,Glu35]-h-amylin (peptide)
peptide: {C20 diacid-γGlu}-KCNTATCATQRLANFLRHSSPNFGAIPSSTNVGPETY-NH2
modifications: disulfide 2-7
SMILES: CC[C@H](C)[C@H](NC(=O)[C@H](C)NC(=O)CNC(=O)[C@H](Cc1ccccc1)NC(=O)[C@H](CC(N)=O)NC(=O)[C@@H]1CCCN1C(=O)[C@H](CO)NC(=O)[C@H](CO)NC(=O)[C@H](Cc1c[nH]cn1)NC(=O)[C@H](CCCNC(=N)N)NC(=O)[C@H](CC(C)C)NC(=O)[C@H](Cc1ccccc1)NC(=O)[C@H](CC(N)=O)NC(=O)[C@H](C)NC(=O)[C@H](CC(C)C)NC(=O)[C@H](CCCNC(=N)N)NC(=O)[C@H](CCC(N)=O)NC(=O)[C@@H](NC(=O)[C@H](C)NC(=O)[C@@H]1CSSC[C@H](NC(=O)[C@H](CCCCN)NC(=O)CC[C@H](NC(=O)CCCCCCCCCCCCCCCCCCC(=O)O)C(=O)O)C(=O)N[C@@H](CC(N)=O)C(=O)N[C@@H]([C@@H](C)O)C(=O)N[C@@H](C)C(=O)N[C@@H]([C@@H](C)O)C(=O)N1)[C@@H](C)O)C(=O)N1CCC[C@H]1C(=O)N[C@@H](CO)C(=O)N[C@@H](CO)C(=O)N[C@H](C(=O)N[C@@H](CC(N)=O)C(=O)N[C@H](C(=O)NCC(=O)N1CCC[C@H]1C(=O)N[C@@H](CCC(=O)O)C(=O)N[C@H](C(=O)N[C@@H](Cc1ccc(O)cc1)C(N)=O)[C@@H](C)O)C(C)C)[C@@H](C)O
notes: Synthetic acylated analogue of human amylin; also called compound 29
On to B1, for which, in experiment [1], the “Ratio hCT/hAmylin funct.” value came to 8.7 ratio and the “hAmylin-R funct. EC50” value was determined as 99 pM. In experiment [2], the “hCTR funct. EC50” value amounted to 857 pM. In addition, the IC50 (usually the concentration at which inhibition is half-maximal) in experiment [3] is 0.577 nM.

B2: N^α1-[(4S)-4-carboxy-4-(19-carboxynonadecanoylamino)butanoyl]-[Glu14,Arg17,Pro21,Pro27,His34]-h-amylin (peptide)
peptide: {C20 diacid-γGlu}-KCNTATCATQRLAEFLRHSSPNFGAIPSSTNVGHNTY-NH2
modifications: disulfide 2-7
SMILES: CC[C@H](C)[C@H](NC(=O)[C@H](C)NC(=O)CNC(=O)[C@H](Cc1ccccc1)NC(=O)[C@H](CC(N)=O)NC(=O)[C@@H]1CCCN1C(=O)[C@H](CO)NC(=O)[C@H](CO)NC(=O)[C@H](Cc1c[nH]cn1)NC(=O)[C@H](CCCNC(=N)N)NC(=O)[C@H](CC(C)C)NC(=O)[C@H](Cc1ccccc1)NC(=O)[C@H](CCC(=O)O)NC(=O)[C@H](C)NC(=O)[C@H](CC(C)C)NC(=O)[C@H](CCCNC(=N)N)NC(=O)[C@H](CCC(N)=O)NC(=O)[C@@H](NC(=O)[C@H](C)NC(=O)[C@@H]1CSSC[C@H](NC(=O)[C@H](CCCCN)NC(=O)CC[C@H](NC(=O)CCCCCCCCCCCCCCCCCCC(=O)O)C(=O)O)C(=O)N[C@@H](CC(N)=O)C(=O)N[C@@H]([C@@H](C)O)C(=O)N[C@@H](C)C(=O)N[C@@H]([C@@H](C)O)C(=O)N1)[C@@H](C)O)C(=O)N1CCC[C@H]1C(=O)N[C@@H](CO)C(=O)N[C@@H](CO)C(=O)N[C@H](C(=O)N[C@@H](CC(N)=O)C(=O)N[C@H](C(=O)NCC(=O)N[C@@H](Cc1c[nH]cn1)C(=O)N[C@@H](CC(N)=O)C(=O)N[C@H](C(=O)N[C@@H](Cc1ccc(O)cc1)C(N)=O)[C@@H](C)O)C(C)C)[C@@H](C)O
notes: Synthetic acylated analogue of human amylin; also called compound 17
Turning to B2, in experiment [1], the “Ratio hCT/hAmylin funct.” value is 8.8 ratio and the “hAmylin-R funct. EC50” value came to 268 pM. Besides, the “hCTR funct. EC50” value in experiment [2] is 2350 pM. Further, in experiment [3], the IC50 came out at 0.878 nM.

B3: N^α1-[(4S)-4-carboxy-4-(19-carboxynonadecanoylamino)butanoyl]-[Glu14,Arg17,Pro21,Pro27,Pro34]-h-amylin (peptide)
peptide: {C20 diacid-γGlu}-KCNTATCATQRLAEFLRHSSPNFGAIPSSTNVGPNTY-NH2
modifications: disulfide 2-7
SMILES: CC[C@H](C)[C@H](NC(=O)[C@H](C)NC(=O)CNC(=O)[C@H](Cc1ccccc1)NC(=O)[C@H](CC(N)=O)NC(=O)[C@@H]1CCCN1C(=O)[C@H](CO)NC(=O)[C@H](CO)NC(=O)[C@H](Cc1c[nH]cn1)NC(=O)[C@H](CCCNC(=N)N)NC(=O)[C@H](CC(C)C)NC(=O)[C@H](Cc1ccccc1)NC(=O)[C@H](CCC(=O)O)NC(=O)[C@H](C)NC(=O)[C@H](CC(C)C)NC(=O)[C@H](CCCNC(=N)N)NC(=O)[C@H](CCC(N)=O)NC(=O)[C@@H](NC(=O)[C@H](C)NC(=O)[C@@H]1CSSC[C@H](NC(=O)[C@H](CCCCN)NC(=O)CC[C@H](NC(=O)CCCCCCCCCCCCCCCCCCC(=O)O)C(=O)O)C(=O)N[C@@H](CC(N)=O)C(=O)N[C@@H]([C@@H](C)O)C(=O)N[C@@H](C)C(=O)N[C@@H]([C@@H](C)O)C(=O)N1)[C@@H](C)O)C(=O)N1CCC[C@H]1C(=O)N[C@@H](CO)C(=O)N[C@@H](CO)C(=O)N[C@H](C(=O)N[C@@H](CC(N)=O)C(=O)N[C@H](C(=O)NCC(=O)N1CCC[C@H]1C(=O)N[C@@H](CC(N)=O)C(=O)N[C@H](C(=O)N[C@@H](Cc1ccc(O)cc1)C(N)=O)[C@@H](C)O)C(C)C)[C@@H](C)O
notes: Synthetic acylated analogue of human amylin; also called compound 32
For B3, in experiment [1], the “Ratio hCT/hAmylin funct.” value was determined as 6.6 ratio and the “hAmylin-R funct. EC50” value came out at 50 pM. Moreover, the “hCTR funct. EC50” value in experiment [2] was 327 pM. Moreover, the IC50 in experiment [3] was found to be 0.1 nM.

B4: N^α1-[(4S)-4-carboxy-4-[[(4S)-4-carboxy-4-(19-carboxynonadecanoylamino)butanoyl]amino]butanoyl]-[Glu14,Arg17,Pro21,Pro27]-h-amylin (peptide)
peptide: {C20 diacid-γGlu-γGlu}-KCNTATCATQRLAEFLRHSSPNFGAIPSSTNVGSNTY-NH2
modifications: disulfide 2-7
SMILES: CC[C@H](C)[C@H](NC(=O)[C@H](C)NC(=O)CNC(=O)[C@H](Cc1ccccc1)NC(=O)[C@H](CC(N)=O)NC(=O)[C@@H]1CCCN1C(=O)[C@H](CO)NC(=O)[C@H](CO)NC(=O)[C@H](Cc1c[nH]cn1)NC(=O)[C@H](CCCNC(=N)N)NC(=O)[C@H](CC(C)C)NC(=O)[C@H](Cc1ccccc1)NC(=O)[C@H](CCC(=O)O)NC(=O)[C@H](C)NC(=O)[C@H](CC(C)C)NC(=O)[C@H](CCCNC(=N)N)NC(=O)[C@H](CCC(N)=O)NC(=O)[C@@H](NC(=O)[C@H](C)NC(=O)[C@@H]1CSSC[C@H](NC(=O)[C@H](CCCCN)NC(=O)CC[C@H](NC(=O)CC[C@H](NC(=O)CCCCCCCCCCCCCCCCCCC(=O)O)C(=O)O)C(=O)O)C(=O)N[C@@H](CC(N)=O)C(=O)N[C@@H]([C@@H](C)O)C(=O)N[C@@H](C)C(=O)N[C@@H]([C@@H](C)O)C(=O)N1)[C@@H](C)O)C(=O)N1CCC[C@H]1C(=O)N[C@@H](CO)C(=O)N[C@@H](CO)C(=O)N[C@H](C(=O)N[C@@H](CC(N)=O)C(=O)N[C@H](C(=O)NCC(=O)N[C@@H](CO)C(=O)N[C@@H](CC(N)=O)C(=O)N[C@H](C(=O)N[C@@H](Cc1ccc(O)cc1)C(N)=O)[C@@H](C)O)C(C)C)[C@@H](C)O
notes: Synthetic acylated analogue of human amylin; also called compound 15
In the case of B4, in experiment [1], the “Ratio hCT/hAmylin funct.” value stood at 8.9 ratio and the “hAmylin-R funct. EC50” value was 386 pM. In experiment [2], the “hCTR funct. EC50” value amounted to 3430 pM. In addition, in experiment [3], the IC50 came to 0.597 nM.
